B1: estrogen receptor (ER), full-length (receptor)
chain: MTMTLHTKASGMALLHQIQGNELEPLNRPQLKIPLERPLGEVYLDSSKPAVYNYPEGAAYEFNAAAAANAQVYGQTGLPYGPGSEAAAFGSNGLGGFPPLNSVSPSPLMLLHPPPQLSPFLQPHGQQVPYYLENEPSGYTVREAGPPAFYRPNSDNRRQGGRERLASTNDKGSMAMESAKETRYCAVCNDYASGYHYGVWSCEGCKAFFKRSIQGHNDYMCPATNQCTIDKNRRKSCQACRLRKCYEVGMMKGGIRKDRRGGRMLKHKRQRDDGEGRGEVGSAGDMRAANLWPSPLMIKRSKKNSLALSLTADQMVSALLDAEPPILYSEYDPTRPFSEASMMGLLTNLADRELVHMINWAKRVPGFVDLTLHDQVHLLECAWLEILMIGLVWRSMEHPVKLLFAPNLLLDRNQGKCVEGMVEIFDMLLATSSRFRMMNLQGEEFVCLKSIILLNSGVYTFLSSTLKSLEEKDHIHRVLDKITDTLIHLMAKAGLTLQQQHQRLAQLLLILSHIRHMSNKGMEHLYSMKCKNVVPLYDLLLEMLDAHRLHAPTSRGGASVEETDQSHLATAGSTSSHSLQKYYITGEAEGFPATV
notes: 35S-labeled when in vitro translated for the pull-downs; endogenous in MCF7 cells for the co-immunoprecipitation; also called ERα; pSG5-ER
B2: PR: progesterone receptor (protein)
chain: MTELKAKGPRAPHVAGGPPSPEVGSPLLCRPAAGPFPGSQTSDTLPEVSAIPISLDGLLFPRPCQGQDPSDEKTQDQQSLSDVEGAYSRAEATRGAGGSSSSPPEKDSGLLDSVLDTLLAPSGPGQSQPSPPACEVTSSWCLFGPELPEDPPAAPATQRVLSPLMSRSGCKVGDSSGTAAAHKVLPRGLSPARQLLLPASESPHWSGAPVKPSPQAAAVEVEEEDGSESEESAGPLLKGKPRALGGAAAGGGAAAVPPGAAAGGVALVPKEDSRFSAPRVALVEQDAPMAPGRSPLATTVMDFIHVPILPLNHALLAARTRQLLEDESYDGGAGAASAFAPPRSSPCASSTPVAVGDFPDCAYPPDAEPKDDAYPLYSDFQPPALKIKEEEEGAEASARSPRSYLVAGANPAAFPDFPLGPPPPLPPRATPSRPGEAAVTAAPASASVSSASSSGSTLECILYKAEGAPPQQGPFAPPPCKAPGASGCLLPRDGLPSTSASAAAAGAAPALYPALGLNGLPQLGYQAAVLKEGLPQVYPPYLNYLRPDSEASQSPQYSFESLPQKICLICGDEASGCHYGVLTCGSCKVFFKRAMEGQHNYLCAGRNDCIVDKIRRKNCPACRLRKCCQAGMVLGGRKFKKFNKVRVVRALDAVALPQPVGVPNESQALSQRFTFSPGQDIQLIPPLINLLMSIEPDVIYAGHDNTKPDTSSSLLTSLNQLGERQLLSVVKWSKSLPGFRNLHIDDQITLIQYSWMSLMVFGLGWRSYKHVSGQMLYFAPDLILNEQRMKESSFYSLCLTMWQIPQEFVKLQVSQEEFLCMKVLLLLNTIPLEGLRSQTQFEEMRSSYIRELIKAIGLRQKGVVSSSQRFYQLTKLLDNLHDLVKQLHLYCLNTFIQSRALSVEFPEMMSEVIAAQLPKILAGMVKPLLFHKK

Experiments:
[1] = target: T1, interaction between AR and TR4 (Homo sapiens, UniProt P10275, DEL79-80/DUP473-473); assay: Modified mammalian one-hybrid system pSG5AR / GAL4-TR4E; format: cell-based; details: 1 μM of anti androgen
T1 construct: A full-length AR(pSG5AR) was co-transfected with GAL4-TR4E; expressed in transfected cells; host or cells: H1299
T1 sequence (P10275 with tags, fused parts or gaps DEL79-80/DUP473-473): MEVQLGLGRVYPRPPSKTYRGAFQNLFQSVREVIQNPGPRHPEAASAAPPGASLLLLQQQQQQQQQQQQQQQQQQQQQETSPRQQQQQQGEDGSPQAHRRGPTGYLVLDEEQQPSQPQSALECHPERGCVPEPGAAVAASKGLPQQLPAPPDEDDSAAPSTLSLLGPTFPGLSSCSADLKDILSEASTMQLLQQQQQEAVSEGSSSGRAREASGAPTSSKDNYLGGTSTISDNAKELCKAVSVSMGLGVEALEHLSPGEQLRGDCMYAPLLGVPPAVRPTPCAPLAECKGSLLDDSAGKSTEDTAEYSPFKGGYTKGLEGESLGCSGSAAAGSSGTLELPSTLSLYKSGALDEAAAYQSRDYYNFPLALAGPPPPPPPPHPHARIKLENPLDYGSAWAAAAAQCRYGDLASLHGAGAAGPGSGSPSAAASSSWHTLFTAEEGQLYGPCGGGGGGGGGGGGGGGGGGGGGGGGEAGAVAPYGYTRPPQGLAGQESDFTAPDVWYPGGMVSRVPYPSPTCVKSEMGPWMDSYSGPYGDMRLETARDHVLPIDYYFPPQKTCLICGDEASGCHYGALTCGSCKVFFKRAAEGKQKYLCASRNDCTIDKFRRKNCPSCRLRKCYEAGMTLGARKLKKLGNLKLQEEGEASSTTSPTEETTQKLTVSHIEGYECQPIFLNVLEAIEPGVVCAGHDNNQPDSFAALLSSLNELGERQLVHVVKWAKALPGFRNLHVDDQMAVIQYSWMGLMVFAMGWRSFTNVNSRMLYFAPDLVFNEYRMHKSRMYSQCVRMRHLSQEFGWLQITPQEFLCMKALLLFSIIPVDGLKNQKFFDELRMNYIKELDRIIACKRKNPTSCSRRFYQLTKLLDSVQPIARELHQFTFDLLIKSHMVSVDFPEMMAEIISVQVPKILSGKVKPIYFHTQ
Description: A full-length AR(pSG5AR) was co-transfected with GAL4-TR4E and PG5-Luc reporter in H1299 cells (pSG5AR, pSG5GR, pSG5PR, disclosed in Yeh et al., Proc Natl. Acad. Sci., 93:5517-5521 (1996), which is herein incorporated by reference at least for material related to plasmids and assays, including sequence).
Transfection was performed by a modified calcium phosphate precipitation method. The pRL-TK plasmid was co-transfected for normalization of transfection efficiency.

TR4 = target: T2, TR4 (Homo sapiens, UniProt P49116); assay: TR4-mediated transactivation reporter assay; format: cell-based; details: H1299 cells; absence or presence of DHT
T2 construct: full-length AR and TR4 in eukaryotic expression vectors (pSG5AR and pCMXTR4) were co-transfected; expressed in transfected cells; host or cells: H1299, HepG2
T2 sequence (P49116 1-615 isoform P49116-2 N175S/W419R/A428G/K503N/L504W/A613V): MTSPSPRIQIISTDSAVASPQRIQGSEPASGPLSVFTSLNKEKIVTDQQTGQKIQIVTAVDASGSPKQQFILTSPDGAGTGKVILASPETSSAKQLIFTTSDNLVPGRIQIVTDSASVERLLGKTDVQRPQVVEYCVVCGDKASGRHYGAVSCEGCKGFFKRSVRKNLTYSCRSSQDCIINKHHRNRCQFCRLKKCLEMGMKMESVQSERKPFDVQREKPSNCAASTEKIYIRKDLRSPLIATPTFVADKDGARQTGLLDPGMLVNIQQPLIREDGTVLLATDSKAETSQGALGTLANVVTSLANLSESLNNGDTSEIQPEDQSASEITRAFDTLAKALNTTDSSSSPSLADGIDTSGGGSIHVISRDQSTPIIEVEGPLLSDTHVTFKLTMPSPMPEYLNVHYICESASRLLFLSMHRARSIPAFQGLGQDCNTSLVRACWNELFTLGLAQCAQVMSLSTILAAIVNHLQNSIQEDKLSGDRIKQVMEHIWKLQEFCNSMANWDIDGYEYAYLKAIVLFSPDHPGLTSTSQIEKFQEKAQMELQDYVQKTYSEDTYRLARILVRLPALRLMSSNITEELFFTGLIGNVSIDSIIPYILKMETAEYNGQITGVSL
Description: Cells were routinely maintained in DMEM with 10% heat-inactivated fetal bovine serum. The cells were transfected using a modified calcium phosphate precipitation method, Mizokami, & Chang, J: Biol. Chem. 269,25655-25659 (1994), or SuperFect (Qiagen). To normalize the transfection efficiency, the (3-galactosidase expression ver and pRL-TK were co-transfected in CAT assay and in Dual-luciferase reporter assay system (Promega), respectively.
More specifically, 500 ng of reporter plasmids were co-transfected(DR4-CAT and CNTFR-15-LUC) with 200 ng of pCMX-TR4 and increasing amounts of pCMV-AR (200, 600, and 1,200 ng), pSG5GR (1,200 ng), or pSG5 PR (1,200 ng) using the SuperFect transfection kit (Qiagen) (PCMV AR Mowszowicz et al., (1993) Molecular Endocrinology 7:861:869). […] Similar results were obtained when the DR4-TK-CAT reporter was replaced with DR1-CNTFR-15-LUC, another TR4 response element (FIG. 3A). Young, et al., J: Biol. Chem. 272,3109-3116 (1997).
Another TR4 potential target gene, which is located in the hepatitis B virus (HBV) enhancer II region (−34 to −7) containing a classic DR1 motif. Breidbart, et al., Pediatric Res. 34,300-302 (1993), was investigated. The reporter plasmid CpFL(4)-LUC, which contains the HBV core promoter (Cp) sequence located between −34 and −7 (nucleotide coordinates 1751 and 1778 derived from the Genbank database) was shown above in FIG. 3B. The arrows indicate the DRI motif in HBV core promoter. HepG2 cells were co-transfected with 1.5 μg CpFL(4)-LUC reporter and 0.5 μg pCMX-TR4, with increasing amounts of pCMV-AR (0.5, 2.5, and 5 μg) by modified calcium phosphate precipitation method. The relative reporter gene activities were compared to the CAT activities (or luciferase activities) with vector alone. To normalize the transfection efficiency, the β-galactosidase expression vector and pRL-TK were co-transfected in the CAT assay and in the Dual-luciferase reporter assay system (Promega), respectively.

TR2 = target: T3, TR2 (Homo sapiens, UniProt P13056); assay: TR2-mediated transactivation reporter assay; format: cell-based; details: H1299 cells; absence or presence of E2
T3 sequence (P13056 1-603): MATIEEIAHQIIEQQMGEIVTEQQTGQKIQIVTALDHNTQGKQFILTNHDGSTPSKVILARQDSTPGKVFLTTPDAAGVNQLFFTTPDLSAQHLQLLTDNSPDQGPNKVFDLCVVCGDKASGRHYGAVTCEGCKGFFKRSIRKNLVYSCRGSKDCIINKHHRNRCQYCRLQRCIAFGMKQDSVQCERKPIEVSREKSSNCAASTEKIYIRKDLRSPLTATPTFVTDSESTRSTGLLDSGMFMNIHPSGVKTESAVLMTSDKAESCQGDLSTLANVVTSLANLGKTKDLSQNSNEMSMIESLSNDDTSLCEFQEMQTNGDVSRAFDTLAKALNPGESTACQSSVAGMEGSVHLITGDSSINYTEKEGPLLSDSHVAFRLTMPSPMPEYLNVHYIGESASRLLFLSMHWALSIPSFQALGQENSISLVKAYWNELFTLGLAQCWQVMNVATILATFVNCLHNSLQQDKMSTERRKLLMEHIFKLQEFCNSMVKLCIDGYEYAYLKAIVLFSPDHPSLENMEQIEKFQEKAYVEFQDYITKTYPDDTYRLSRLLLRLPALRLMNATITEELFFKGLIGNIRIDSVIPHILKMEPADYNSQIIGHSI
Description: Transfections and chloramphenicol acetyltransferase (CAT) assays were performed as described previously. Yeh, & Chang, Proc. Natl. Acad. Sci. 93, 5517-5521 (1996). Briefly, 4×10^5 cells were plated in 60-mm dishes and cultured for 24 h, and then the medium was changed to phenol red free DMEM with 5% charcoal-stripped FCS 2 h before transfection. The cells were co-transfected with TR2 and/or ER expression plasmids with 2 μg of TR2-TK-CAT reporter or 1 μg of ERE-CAT reporter gene plasmid, as indicated in the Figures, by using the calcium phosphate precipitation method. A β-gal actosidase expression plasmid, pCMV-β-gal, was transfected in all transfections as an internal control for normalizing transfection efficiency. The total amount of DNA was adjusted up to 10.5 μg with parent vectors, pSG5 or pCMV in each transcriptional activity assay. […] The cells were then harvested and whole cell extracts were used for CAT assay. The CAT activity was quantitated by Phosphorlmager (Molecular Dynamics). Data are presented as means±S.D. of at least three independent experiments.
The CAT reporter assay was used to study the potential consequence of the formation of heterodimers between the TR2 and ER. […] More specifically, H1299 cells were transiently cotransfected with 2 μg of DR4-TK-CAT reporter plasmid and 3 μg of TR2 expression plasmid together with increasing amounts of the ER expression vector. […] Cells were also transfected with internal control reporter plasmid, pCMV-β-gal, as an internal control for transfection efficiency. Luciferase activity was then analyzed following manufacturer's instructions (Promega). […] Similar results were obtained when the DR4-TK-CAT reporter with DR1-HBV-LUC were replaced, another TR2 response element (FIG. 7C).
This conclusion was further confirmed by using the chimera receptor, TR2-androgen receptor (AR) ARp-TR2, which was generated by swapping TR2 proximal box (P-box) with that found in the AR. […] Luciferase activity was then analyzed following manufacturer's instructions (Promega). […]

[2] = target: T4, TR4 orphan receptor (TR4), full-length (human, UniProt P49116 1-596); assay: Table 4, summary of interactions tested; assay not given
T4 construct: Full-length TR4; 35S-labeled when in vitro translated, expressed from plasmids in the cell assays; also called pCMX-TR4; pCMV-TR4
T4 sequence: T2 sequence (P49116 1-615 isoform P49116-2 N175S/W419R/A428G/K503N/L504W/A613V)

Molecule	Effect on DHT-enhanced interaction between AR and TR4 [1]	CAT activity induced by pCMXTR4 (DR4-TK-CAT; similar with DR1-CNTFR-I5-LUC) (TR4)	CAT activity induced by pCMV-TR2 (DR4-TK-CAT; similar with DR1-HBV-LUC) (TR2)	binding result [2]
CC1(C)C(=O)N(c2ccc(C#N)c(C(F)(F)F)c2)C(=O)N1CCCCO [RU58841]	abolish			
CC(C)(O)C(=O)Nc1ccc([N+](=O)[O-])c(C(F)(F)F)c1 [hydroxyflutamide]	abolish			
GR: glucocorticoid receptor		no suppressive effects	no suppressive effect	
B1				binds
B2		no suppressive effects	no suppressive effect	

Reference: patent US20030235860A1, “Interactions between AR, ER, TR2, and TR4” (priority 1999, published 2003)
